Measured values as given in PMC5625841 (Cell, 2017).

Assays:
[1] = target: taxol-stabilized microtubules; assay: single-molecule TIRF binding density on microtubules
[2] = target: Dyn^WB-M, monomeric S. cerevisiae dynein construct with a Walker B mutation in AAA3 (S. cerevisiae); assay: cryo-EM structure
[3] = target: Dyn^wt-M, monomeric S. cerevisiae cytoplasmic dynein construct lacking GST, wild type AAA3 (S. cerevisiae) (UniProt P36022); assay: cryo-EM structure
cryo-EM structure = target: the molecule itself; assay: cryo-EM structure

Sequence of Dyn^wt-M, monomeric S. cerevisiae cytoplasmic dynein construct lacking GST, wild type AAA3 (S. cerevisiae) (P36022 whole entry): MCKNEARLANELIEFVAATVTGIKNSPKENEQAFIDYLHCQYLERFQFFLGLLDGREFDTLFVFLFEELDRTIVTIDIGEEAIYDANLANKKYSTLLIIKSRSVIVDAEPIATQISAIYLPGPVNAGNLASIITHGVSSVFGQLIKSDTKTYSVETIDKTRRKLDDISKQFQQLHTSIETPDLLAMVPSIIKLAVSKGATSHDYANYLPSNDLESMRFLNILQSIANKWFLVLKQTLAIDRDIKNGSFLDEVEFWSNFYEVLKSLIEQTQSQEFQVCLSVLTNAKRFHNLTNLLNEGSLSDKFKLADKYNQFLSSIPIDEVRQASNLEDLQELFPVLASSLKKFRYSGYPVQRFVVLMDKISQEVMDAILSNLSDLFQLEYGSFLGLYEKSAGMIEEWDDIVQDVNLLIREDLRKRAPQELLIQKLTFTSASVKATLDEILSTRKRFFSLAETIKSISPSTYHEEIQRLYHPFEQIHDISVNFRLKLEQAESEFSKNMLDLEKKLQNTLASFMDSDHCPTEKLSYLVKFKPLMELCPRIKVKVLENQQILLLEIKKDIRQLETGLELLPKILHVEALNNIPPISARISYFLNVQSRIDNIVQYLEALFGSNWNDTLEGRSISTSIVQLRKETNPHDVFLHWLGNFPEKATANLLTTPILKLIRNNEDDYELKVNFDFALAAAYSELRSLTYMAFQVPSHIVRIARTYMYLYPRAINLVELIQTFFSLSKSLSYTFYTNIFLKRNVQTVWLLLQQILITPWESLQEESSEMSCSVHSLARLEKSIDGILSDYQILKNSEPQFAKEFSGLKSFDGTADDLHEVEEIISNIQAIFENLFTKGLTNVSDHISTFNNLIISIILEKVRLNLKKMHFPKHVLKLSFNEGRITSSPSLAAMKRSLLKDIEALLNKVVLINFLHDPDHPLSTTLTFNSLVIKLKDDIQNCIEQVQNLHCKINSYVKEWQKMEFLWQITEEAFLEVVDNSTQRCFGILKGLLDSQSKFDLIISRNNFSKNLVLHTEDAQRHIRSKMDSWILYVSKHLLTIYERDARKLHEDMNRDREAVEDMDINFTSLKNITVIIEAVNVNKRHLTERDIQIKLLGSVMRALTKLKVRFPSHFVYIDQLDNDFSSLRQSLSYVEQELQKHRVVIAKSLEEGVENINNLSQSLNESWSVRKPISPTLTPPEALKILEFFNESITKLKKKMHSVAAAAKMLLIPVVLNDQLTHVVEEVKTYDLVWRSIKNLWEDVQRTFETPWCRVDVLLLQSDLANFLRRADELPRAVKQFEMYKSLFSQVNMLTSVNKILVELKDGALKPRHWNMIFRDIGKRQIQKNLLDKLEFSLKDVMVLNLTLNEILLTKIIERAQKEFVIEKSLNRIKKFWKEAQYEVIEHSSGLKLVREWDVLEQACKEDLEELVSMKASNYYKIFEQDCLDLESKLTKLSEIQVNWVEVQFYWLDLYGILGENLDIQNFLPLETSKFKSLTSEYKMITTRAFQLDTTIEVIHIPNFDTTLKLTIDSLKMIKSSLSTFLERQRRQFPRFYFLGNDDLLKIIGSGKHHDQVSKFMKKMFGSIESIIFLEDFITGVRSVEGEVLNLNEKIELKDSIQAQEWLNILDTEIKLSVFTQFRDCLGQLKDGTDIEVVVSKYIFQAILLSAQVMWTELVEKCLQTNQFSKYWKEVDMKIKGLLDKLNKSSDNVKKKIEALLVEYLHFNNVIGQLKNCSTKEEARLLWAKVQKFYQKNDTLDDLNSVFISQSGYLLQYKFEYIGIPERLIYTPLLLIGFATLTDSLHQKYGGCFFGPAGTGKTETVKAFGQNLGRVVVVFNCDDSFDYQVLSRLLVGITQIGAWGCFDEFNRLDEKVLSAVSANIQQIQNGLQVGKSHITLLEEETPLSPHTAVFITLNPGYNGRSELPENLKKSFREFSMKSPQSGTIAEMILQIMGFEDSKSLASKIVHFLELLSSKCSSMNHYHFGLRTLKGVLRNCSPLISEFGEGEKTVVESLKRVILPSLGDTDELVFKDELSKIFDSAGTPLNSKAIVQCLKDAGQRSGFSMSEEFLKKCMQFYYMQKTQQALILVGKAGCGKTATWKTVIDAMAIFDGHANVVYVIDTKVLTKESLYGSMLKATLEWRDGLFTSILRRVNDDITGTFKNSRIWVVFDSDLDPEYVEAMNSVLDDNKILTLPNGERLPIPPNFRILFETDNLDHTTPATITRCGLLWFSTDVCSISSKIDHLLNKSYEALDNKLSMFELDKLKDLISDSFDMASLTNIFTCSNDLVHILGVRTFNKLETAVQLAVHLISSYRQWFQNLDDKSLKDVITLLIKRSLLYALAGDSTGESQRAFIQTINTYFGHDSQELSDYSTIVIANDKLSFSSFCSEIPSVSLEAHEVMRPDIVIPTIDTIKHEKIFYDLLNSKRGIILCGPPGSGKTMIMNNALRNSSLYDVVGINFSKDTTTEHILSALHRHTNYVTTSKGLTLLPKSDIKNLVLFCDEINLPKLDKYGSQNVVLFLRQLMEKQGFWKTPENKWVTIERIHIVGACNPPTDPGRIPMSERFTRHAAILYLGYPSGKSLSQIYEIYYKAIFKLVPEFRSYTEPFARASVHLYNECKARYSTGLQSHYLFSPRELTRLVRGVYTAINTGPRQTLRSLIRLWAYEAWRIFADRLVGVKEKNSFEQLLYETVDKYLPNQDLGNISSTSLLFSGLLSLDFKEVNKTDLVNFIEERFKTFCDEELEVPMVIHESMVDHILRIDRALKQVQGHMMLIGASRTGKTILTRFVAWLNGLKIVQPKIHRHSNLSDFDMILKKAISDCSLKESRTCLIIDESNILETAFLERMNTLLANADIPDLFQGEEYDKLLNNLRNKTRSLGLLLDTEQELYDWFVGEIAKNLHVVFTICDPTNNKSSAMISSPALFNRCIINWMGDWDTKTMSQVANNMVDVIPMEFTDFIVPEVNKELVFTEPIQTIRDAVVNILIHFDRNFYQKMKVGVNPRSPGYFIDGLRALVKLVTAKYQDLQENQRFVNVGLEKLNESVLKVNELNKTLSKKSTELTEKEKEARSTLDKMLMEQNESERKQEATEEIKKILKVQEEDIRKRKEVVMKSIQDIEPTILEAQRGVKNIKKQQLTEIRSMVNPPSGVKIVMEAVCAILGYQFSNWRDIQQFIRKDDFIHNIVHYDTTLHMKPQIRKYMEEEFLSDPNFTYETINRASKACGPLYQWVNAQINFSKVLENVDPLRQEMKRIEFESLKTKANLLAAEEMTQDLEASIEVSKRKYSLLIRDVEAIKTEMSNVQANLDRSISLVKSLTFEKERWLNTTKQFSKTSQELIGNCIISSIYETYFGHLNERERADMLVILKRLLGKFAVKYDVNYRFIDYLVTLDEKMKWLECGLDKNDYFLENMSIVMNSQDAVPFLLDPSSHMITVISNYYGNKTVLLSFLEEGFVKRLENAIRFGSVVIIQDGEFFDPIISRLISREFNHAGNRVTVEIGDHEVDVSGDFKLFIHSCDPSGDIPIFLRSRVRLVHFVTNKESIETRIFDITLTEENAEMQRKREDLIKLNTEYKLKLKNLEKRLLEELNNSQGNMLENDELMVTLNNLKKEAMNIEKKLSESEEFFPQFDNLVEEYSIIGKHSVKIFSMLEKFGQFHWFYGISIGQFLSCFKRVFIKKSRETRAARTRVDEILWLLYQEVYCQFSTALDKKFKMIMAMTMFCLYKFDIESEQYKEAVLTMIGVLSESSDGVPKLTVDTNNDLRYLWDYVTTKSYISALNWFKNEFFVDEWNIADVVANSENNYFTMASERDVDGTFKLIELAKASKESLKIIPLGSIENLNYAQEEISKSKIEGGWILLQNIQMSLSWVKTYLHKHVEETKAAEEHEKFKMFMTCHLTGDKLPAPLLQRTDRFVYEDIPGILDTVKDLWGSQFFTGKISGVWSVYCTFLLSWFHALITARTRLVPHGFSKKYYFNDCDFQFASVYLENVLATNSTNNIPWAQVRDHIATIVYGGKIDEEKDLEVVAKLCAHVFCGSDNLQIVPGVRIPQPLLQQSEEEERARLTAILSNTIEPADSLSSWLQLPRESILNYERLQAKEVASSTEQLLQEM

Question: “Dyn^WB, GST-dimerized S. cerevisiae dynein construct with a Walker B mutation in AAA3 (domain or fragment)” was tested. Which decrease of binding density on MTs with 300 nM Lis1 against no Lis1 [1] did it give?
Answer: 42%

Question: For “Dyn^WA, GST-dimerized S. cerevisiae dynein construct with a Walker A mutation in AAA3 (domain or fragment)”, which increase of binding density on MTs with 300 nM Lis1 against no Lis1 [1] is on record?
Answer: 62%

B1: Lis1 (S. cerevisiae), dimer (natural protein, UniProt P39946 1-494, looked up)
chain: MTNWQQQLPLTDTQKNELDKSVLRYLNWNYKQTVRHEHAQDYESVRHAIVTLSGFLLQESVDRQEFISNNDTSNESMVDIDELLLPKKWNSIVRLQKKIIELEQNTETLVSQIKDLNTQVSELAQFKPTTSNGTSAHNVLKWIPRNLPSCLINVESSVTSVKLHPNLPIVFVATDHGKLYAFDLFNYTIPLASLQSHTKAITSMDVLFTNYTNSSKKNYLVIVTASKDLQIHVFKWVSEECKFQQIRSLLGHEHIVSAVKIWQKNNDVHIASCSRDQTVKIWDFHNGWSLKTFQPHSQWVRSIDVLGDYIISGSHDTTLRLTHWPSGNGLSVGTGHEFPIEKVKFIHFIEDSPEIRFRTPSTDRYKNWGMQYCVSASRDRTIKIWEIPLPTLMAHRAPIPNPTDSNFRCVLTLKGHLSWVRDISIRGQYLFSCADDKSVRCWDLNTGQCLHVWEKLHTGFVNCLDLDVDFDSNVTPRQMMVTGGLDCKSNVFMR
Question: What does the source list for B1?
Answer: stoichiometry N (Lis1 β-propellers per dynein) [2]: 2; stoichiometry N (Lis1 β-propeller per dynein) [3]: 1; binding result (cryo-EM structure): binds
